Data on four molecules can be found in patent publication US20200010567A1 (NEURIMMUNE, published 2020).

In one test the target is T1, (GR)15: H-C(GR)15-OH.
T1 construct: synthetic, not coupled to BSA; also called poly-GR DPR protein peptide
T1 peptide: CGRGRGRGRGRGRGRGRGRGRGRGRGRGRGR
Kind of test: indirect ELISA, coated uncoupled peptide.

A further test has as its target T2, GP5: H-(GP)5HHHHHH-NH2.
T2 peptide: H-GPGPGPGPGPHHHHHH-NH2
Nature of the test: indirect ELISA, His-tagged peptide coated at 50 ug/ml, antibody titrated [also D00027 FIG. 7N]. An excerpt: (§1) In brief, dipeptide repeat proteins were synthesized and purified by Schafer-N (Copenhagen, Denmark): GA₂₀: H-(GA)₂₀HHHHHH-NH₂; GA₁₀: H-(GA)₁₀HHHHHH-NH₂; GA₆: H-(GA)₆HHHHHH-NH₂; GA₅: H-(GA)₅HHHHHH-NH₂; GA₄: H-(GA)₄HHHHHH-NH₂; GA₃: H-(GA)₃HHHHHH-NH₂; GA₂: H-(GA)₂HHHHHH-NH₂; GP₂₀: H-(GP)₂₀HHHHHH-NH₂; GP₁₀: H-(GP)₁₀HHHHHH-NH₂; GP₆: H-(GP)₆HHHHHH-NH₂; GP₅: H-(GP)₅HHHHHH-NH₂; GP₄: H-(GP)₄HHHHHH-NH₂; GP₃: H-(GP)₃HHHHHH-NH₂; GP₂: H-(GP)₂HHHHHH-NH₂. GR₂₀: H-(GR)₂₀HHHHHH-NH₂; GR₁₀: H-(GR)₁₀HHHHHH-NH₂; GR₆: H-(GR)₆HHHHHH-NH₂; GR₅: H-(GR)₅HHHHHH-NH₂; GR₄: H-(GR)₄HHHHHH-NH₂; GR₃: H-(GR)₃HHHHHH-NH₂; GR₂: H-(GR)₂HHHHHH-NH₂; PA₂₀: H-(PA)₂₀HHHHHH-NH₂; PA₁₀: H-(PA)₁₀HHHHHH-NH₂; PA₆: H-(PA)₆HHHHHH-NH₂; PA₅: H-(PA)₅HHHHHH-NH₂; PA₄: H-(PA)₄HHHHHH-NH₂; PA₃: H-(PA)₃HHHHHH-NH₂; PA₂: H-(PA)₂HHHHHH-NH₂; PR₂₀: H-(PR)₂₀HHHHHH-NH₂; PR₁₀: H-(PR)₁₀HHHHHH-NH₂; PR₆: H-(PR)₆HHHHHH-NH₂; PR₅: H-(PR)₅HHHHHH-NH₂; PR₄: H-(PR)₄HHHHHH-NH₂; PR₃: H-(PR)₃HHHHHH-NH₂; PR₂: H-(PR)₂HHHHHH-NH₂. 96-well microplates (Corning Incorporated, Corning, USA) were coated with dipeptide repeat protein peptides at a concentration of 50 μg/ml in coating buffer (15 mM Na₂CO₃, 35 mM NaHCO₃, pH 9.42). Non-specific binding sites were blocked for 1 h at room temperature with PBS/0.1% Tween®-20 containing 2% BSA (Sigma-Aldrich, Buchs, Switzerland). Primary antibodies were diluted to the indicated concentrations and incubated 1 h at room temperature, followed by incubation with a donkey anti-human IgG Fcγ-specific antibody conjugated with HRP (Jackson ImmunoResearch Laboratories, Inc., West Grove, USA). Binding was determined by measurement of HRP activity in a standard colorimetric assay. EC₅₀ values were estimated by non-linear regression using GraphPad Prism software (San Diego, USA).
A general note: ELISA stands for enzyme-linked immunosorbent assay.

The target of a further test is T3, GP4: H-(GP)4HHHHHH-NH2.
T3 peptide: H-GPGPGPGPHHHHHH-NH2
The description is as above.
Source text: as §1

A further test concerns the target T4, GP2: H-(GP)2HHHHHH-NH2.
T4 peptide: H-GPGPHHHHHH-NH2
Described as above.
Source text: as §1

For another test, the target named is T5, GP3: H-(GP)3HHHHHH-NH2.
T5 peptide: H-GPGPGPHHHHHH-NH2
The description is as above.
Source text: as §1

Another test deals with T6, (PR)15: H-C(PR)15-OH.
T6 construct: synthetic, not coupled to BSA; also called poly-PR DPR protein peptide
T6 peptide: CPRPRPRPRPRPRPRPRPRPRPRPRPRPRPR
Nature of the test: indirect ELISA, coated uncoupled peptide.

Test [1] concerns the target T7, (GA)15: H-CHHHHHH(GA)15-OH.
T7 construct: synthetic, not coupled to BSA; also called poly-GA DPR protein peptide
T7 peptide: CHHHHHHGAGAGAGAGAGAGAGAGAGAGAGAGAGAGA
Nature of the test: indirect ELISA, coated peptide.

Another test concerns the target T8, GA4: H-(GA)4HHHHHH-NH2.
T8 peptide: H-GAGAGAGAHHHHHH-NH2
Kind of test: indirect ELISA, His-tagged peptide coated at 50 ug/ml, antibody titrated [also D00024 FIG. 7F].
Source text: as §1

A further test concerns the target T9, GA2: H-(GA)2HHHHHH-NH2.
T9 peptide: H-GAGAHHHHHH-NH2
Described as above.
Source text: as §1

A further test concerns the target T10, GA10: H-(GA)10HHHHHH-NH2 (C-terminal amide).
T10 peptide: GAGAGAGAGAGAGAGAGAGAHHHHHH
Described as above.
Source text: as §1

The next test deals with T11, GA3: H-(GA)3HHHHHH-NH2.
T11 peptide: H-GAGAGAHHHHHH-NH2
The description is as above.
Source text: as §1

B1: NI-308.6B11 (antibody, V domains shown)
VH: EVQLVQSGAEVKRPGASVKVSCKVSGYTLTELSMHWVRQAPGKGLEWMGGFDPEDGETVYAQKFQGRVTMTEDTSTDTAYMELSSLRSEDTALYHCATYGSSWHWNEGNEGSYYFDYWGQGTLVTVSS
VL: CDIQMTQSPSSLSASVGDRVTITCQASQDISIYLNWYQQKPGKAPKLLIYDASNLETGVPSRFSGSGSGTDFTFTISGLQPEDVARYYCQQYDDLPITFGQGTRLEIK
notes: Recombinant complete human IgG1, kappa
As usually defined, the EC50 is the concentration at which the effect is half-maximal. A lower EC50 goes with higher potency in that assay. In the test with (GR)15: H-C(GR)15-OH, B1 returned an EC50 of 0.94 nM. This lies in the sub-nanomolar range.

B2: NI-308.46E9 (antibody, V domains shown)
VH: QVQLQESGPGLVKPSETLSLTCTVSGASISGSTYYWGWIRQPPGKGLEYIGRIYYSGSTYYNPSLKSRATISVDTSKNQLSLTLSSVTAADTAVYYCVRPFYAGSGNSPFDYWGQGTLVTVSS
VL: CEIVLTQSPATVSVSPGERATLSCRASQSVSTNLAWYQQKPGQPPRLLIYGASTRATGIPARFSGSGSGAEFTLTISSLQSEDFVVYYCQQYNNWPPAFGGGTKVEIK
notes: as for B1
On to B2, for which the binding result with GP5: H-(GP)5HHHHHH-NH2, with GP4: H-(GP)4HHHHHH-NH2, with GP2: H-(GP)2HHHHHH-NH2 and with GP3: H-(GP)3HHHHHH-NH2 was “no binding (tested: about 4x10^5 pM (last point))” each time.

B3: NI-308.24E11 (antibody, V domains shown)
VH: QVQLQESGPGLVKPSETLSLTCTVSTTSLRSYFWSWIRQPPGKGLEWIGYVYYSGSTIYNPSLKNRVTISIDTSKNQFSLNLRSVTAADTAMYFCARGVPAETDARDFPPYYFDHWGQGTLVTVSS
VL: CDIQLTQSPSSLSASVGNRITFTCQASQDIRYYLNWYQQKPGKAPKLLIYDVSNLDTGVPPRFSGSGSGTNFTFTISSLQPEDIAVYYCQQYEGLPVTFGGGTKVEIK
notes: as for B1
In the test with (PR)15: H-C(PR)15-OH, B3 yielded a 50% effective concentration (EC50) of 12.8 nM. Also, in test [1], the binding result is given as “no binding”.

B4: NI-308.15O7 (antibody, V domains shown)
VH: QVQLVESGGGVVQPGRSLRLSCAASGFTFSNHAMHWVRQAPGKGLEWVAVISYDGENTYYADSIEGRFTISRDNFKNTLFLQMYSLTADDTAMYFCARGGRRGHFTSYYLDYWGQGTLVTVSS
VL: CDIQMTQSPSSLSASVGDRVTITCRASQNIDKYLNWYQQIPGKAPKLLIYAASSLHSGVPSRFSGSGSGTDFSLTISSLQPEDFAIYYCQQSYSSFRTFGQGTKLEIK
Regarding B4, the binding result with GA4: H-(GA)4HHHHHH-NH2, with GA2: H-(GA)2HHHHHH-NH2 and with GA3: H-(GA)3HHHHHH-NH2 was “no binding (tested: about 4x10^5 pM (last point))” each time. Moreover, the concentration for a half-maximal effect (EC50) with GA10: H-(GA)10HHHHHH-NH2 was determined as 0.37 nM.
